# In publication PMC2700308:
# Molecular target: gp120 prebound to sCD4 (HIV-1, subtype B, strain YU2 | human) (UniProt P35961)
# Assay: ITC
substance,measurement,value
"S22 peptide, 22 amino acid tyrosine-sulfated peptide corresponding to the CCR5 N-terminus (from UniProt P51681 1-22)",Kd,2.2 µM
